Data on 1 molecule can be found in patent US20250073277A1, “METHODS FOR OBTAINING CARDIOMYOGENIC PRECURSOR CELLS” (University of Miami, published 2025).

In this assay the target is T1, human growth hormone-releasing hormone receptor (GHRHR) (human).
T1 chain: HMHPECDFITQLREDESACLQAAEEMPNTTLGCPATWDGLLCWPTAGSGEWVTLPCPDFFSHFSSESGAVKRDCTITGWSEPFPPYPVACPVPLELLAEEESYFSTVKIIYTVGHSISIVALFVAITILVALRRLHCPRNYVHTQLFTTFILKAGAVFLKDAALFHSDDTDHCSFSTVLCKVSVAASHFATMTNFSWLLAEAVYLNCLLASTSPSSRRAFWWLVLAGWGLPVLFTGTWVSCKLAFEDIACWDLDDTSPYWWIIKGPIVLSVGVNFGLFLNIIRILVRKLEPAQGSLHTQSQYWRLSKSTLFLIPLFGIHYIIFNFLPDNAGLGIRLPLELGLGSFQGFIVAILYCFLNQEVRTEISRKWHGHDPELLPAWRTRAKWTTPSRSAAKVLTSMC
Put plainly: cell-based or functional assay.

On to YADAIFTNSYRKVLGQLSARKLLQDIMSRQQGESNQERGARARL (ligand) [recombinant growth hormone-releasing hormone (GHRH)], for which the “NKX2.5 expression in differentiating hiPSCs” value amounted to 2.5 fold.
